Consider 94 variants from the supplement of paper PMC10567573.

To fix the notation:
B1: WSB1 (parent)
chain: FSHDGLHVASLADDKMVRFWRIDE
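Further: lentivirally expressed fusions sorted by FACS into six bins by GFP to DsRed ratio, PSI derived from sequencing read proportions per bin multiplied by bin number.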

The variants in the data set derive from B1. As to the kind of experiment: protein stability index of a GFP-peptide fusion (GPS, HEK-293T) (PSI 1-6); higher = more stable. The following applies: c terminus: a fixed tail appended.
For FSHDGLHVASLADDKMVRFWRMDE [I22M], the protein stability index came out at 2.16.

Take FSHDGLHVASLADDKMVRFWRSDE [I22S]: the protein stability index is 1.66.

With FSDDGLHVASLADDKMVRFWRIDE [H3D], the protein stability index is 2.2. For FSVDGLHVASLADDKMVRFWRIDE [H3V], the protein stability index came out at 1.11. Regarding FSGDGLHVASLADDKMVRFWRIDE [H3G], the protein stability index stood at 2.95. In the case of FSYDGLHVASLADDKMVRFWRIDE [H3Y], the protein stability index is 1.19. With FSNDGLHVASLADDKMVRFWRIDE [H3N], the protein stability index is 1.92. In the case of FSKDGLHVASLADDKMVRFWRIDE [H3K], the protein stability index is 2.08. As for FSEDGLHVASLADDKMVRFWRIDE [H3E], the protein stability index stood at 1.71.

As to FSPDGLHVASLADDKMVRFWRIDE [H3P], the protein stability index was 1.67. Take FSTDGLHVASLADDKMVRFWRIDE [H3T]: the protein stability index was 1.89. FSSDGLHVASLADDKMVRFWRIDE [H3S]: the protein stability index is 3.07. Take FSCDGLHVASLADDKMVRFWRIDE [H3C]: the protein stability index came out at 3.26. With FSHDGLHVASLADDVMVRFWRIDE [K15V] the figure was 2.78; with FSHDGLHVASLADDEMVRFWRIDE [K15E], 2.68. With FSHDGLHVASLADDHMVRFWRIDE [K15H] the figure was 1.65; with FSHDGLHVASLADDIMVRFWRIDE [K15I], 1.49. The value for FSHDGLHVASLADDSMVRFWRIDE [K15S] was 1.76; that for FSHDGLHVASLADDFMVRFWRIDE [K15F] was 1.35. FSHDGLHVASLADDGMVRFWRIDE [K15G]: the protein stability index is 1.69. Take FSHDGLHVASLADDDMVRFWRIDE [K15D]: the protein stability index was 2.33. As for FSHDGLHVASLADDLMVRFWRIDE [K15L], the protein stability index was determined as 2.49. With FSHDGLHVASLADDKMVRFWIIDE [R21I], the protein stability index is 3.26. The value for FSHDGLHVASLADDKMVRFWHIDE [R21H] was 2.42. The value for FSHDGLHVASLADDKMVRFWPIDE [R21P] was 2.35. Consider FSHDGLHVASLADDKMVRFWLIDE [R21L], for which the protein stability index was determined as 1.59. The value for FSHDGLHVASLADDKMVRFWEIDE [R21E] was 1.8; that for FSHDGLHVASLADDKMVRFWKIDE [R21K] was 2; that for FSHDGLHVASLADDKMVRFWAIDE [R21A] was 1.39. With FSHDGLHVASLADDKMVRFWTIDE [R21T] the figure was 1.17; with FSHDGLHVASLADDKMVRFWNIDE [R21N], 2.15; with FSHDGLHVASLADDKMVRFWSIDE [R21S], 2.12. The value for FSHDGLHVASLADDKGVRFWRIDE [M16G] was 1.83.

On to FSHDGLHVASLADDKPVRFWRIDE [M16P], for which the protein stability index stood at 2.05. The value for FSHDGLHVASLADDKKVRFWRIDE [M16K] was 2.23; that for FSHDGLHVASLADDKNVRFWRIDE [M16N] was 1.36. FSHDGLHVASLADDKIVRFWRIDE [M16I]: the protein stability index stood at 1.4. As to FSHDGLHVASLADDKWVRFWRIDE [M16W], the protein stability index was 1.57. As for FSHDGLHVASLADDKAVRFWRIDE [M16A], the protein stability index was 1.57. Take FSHDGLHVASLADDKYVRFWRIDE [M16Y]: the protein stability index came out at 1.66.

As to FSHNGLHVASLADDKMVRFWRIDE [D4N], the protein stability index came to 2.

For the variant FSHCGLHVASLADDKMVRFWRIDE [D4C], the protein stability index was determined as 1.73. Take FSHPGLHVASLADDKMVRFWRIDE [D4P]: the protein stability index was determined as 2. Take FSHTGLHVASLADDKMVRFWRIDE [D4T]: the protein stability index came out at 2.1. As for FSHYGLHVASLADDKMVRFWRIDE [D4Y], the protein stability index was 1.65. FSHDGLHVASLAHDKMVRFWRIDE [D13H]: the protein stability index came out at 3.41. On to FSHDGLHVASLACDKMVRFWRIDE [D13C], for which the protein stability index was determined as 1.02.

Consider FSHDGLHVASLATDKMVRFWRIDE [D13T], for which the protein stability index came to 1.36. FSHDGLHVASLAEDKMVRFWRIDE [D13E]: the protein stability index worked out at 1.31.

Regarding FSHDGLHVASLAADKMVRFWRIDE [D13A], the protein stability index worked out at 1.02. With FSHDGLHVASLAVDKMVRFWRIDE [D13V] the figure was 2.03. For FSHDGLHVASLAPDKMVRFWRIDE [D13P], the protein stability index was determined as 1.56.

Turning to FSHDGLHVASLARDKMVRFWRIDE [D13R], the protein stability index came out at 1.42. For the variant FSHDGLHVASLYDDKMVRFWRIDE [A12Y], the protein stability index is 1.66. The value for FSHDGLHVASLSDDKMVRFWRIDE [A12S] was 1.35. In the case of FSHDGLHVASLNDDKMVRFWRIDE [A12N], the protein stability index amounted to 2.43. With FSHDGLHVASLDDDKMVRFWRIDE [A12D] the figure was 2.32. Turning to FSHDGLHVAKLADDKMVRFWRIDE [S10K], the protein stability index was 2.84. For the variant FSHDGLHVAELADDKMVRFWRIDE [S10E], the protein stability index was 2.02. With FSHDGLHVATLADDKMVRFWRIDE [S10T], the protein stability index came to 1.64.

Regarding FSHDGLHVAFLADDKMVRFWRIDE [S10F], the protein stability index came out at 3.47.

For FSHDGLHVANLADDKMVRFWRIDE [S10N], the protein stability index was 1.75. FSHDGLHVAVLADDKMVRFWRIDE [S10V]: the protein stability index worked out at 1.11. Turning to FSHDGLHVAALADDKMVRFWRIDE [S10A], the protein stability index was 1.74. As for FSHDGLHSASLADDKMVRFWRIDE [V8S], the protein stability index stood at 2.41.

With FSHDGLHAASLADDKMVRFWRIDE [V8A], the protein stability index worked out at 1.94.

For the variant FSHDGLHNASLADDKMVRFWRIDE [V8N], the protein stability index is 1.68. On to FSHDGLHEASLADDKMVRFWRIDE [V8E], for which the protein stability index is 2.59.

In the case of FSHDGLHKASLADDKMVRFWRIDE [V8K], the protein stability index was 1.1.

As to FSHDGLHIASLADDKMVRFWRIDE [V8I], the protein stability index was 1.92.

Consider FSHDGLHLASLADDKMVRFWRIDE [V8L], for which the protein stability index came out at 1.53. Take FSHDGLHWASLADDKMVRFWRIDE [V8W]: the protein stability index turned out to be 2.92. The value for FSHDGLCVASLADDKMVRFWRIDE [H7C] was 1.86; that for FSHDGLRVASLADDKMVRFWRIDE [H7R] was 3.03; that for FSHDGLAVASLADDKMVRFWRIDE [H7A] was 1.58.

Take FSHDGLKVASLADDKMVRFWRIDE [H7K]: the protein stability index was found to be 1.17. For the variant FSHDGLMVASLADDKMVRFWRIDE [H7M], the protein stability index stood at 1.03. As for FSHDGLTVASLADDKMVRFWRIDE [H7T], the protein stability index was found to be 1.65. On to FSHDGLLVASLADDKMVRFWRIDE [H7L], for which the protein stability index amounted to 1. For FSHDGLHVASLADDKMVRFTRIDE [W20T], the protein stability index is 2.85. Turning to FSHDGLHVASLADDKMVRFPRIDE [W20P], the protein stability index worked out at 2.6. Take FSHDGLHVASLADDKMVRFYRIDE [W20Y]: the protein stability index worked out at 2.26. As to FSHDGLHVASLADDKMVRFHRIDE [W20H], the protein stability index was 2.67. Regarding FSHDGLHVASLADDKMVRFVRIDE [W20V], the protein stability index was 2.77.

On to FSHDGLHVASLADDKMVRFIRIDE [W20I], for which the protein stability index was 2.85. With FSHDGLHVASLADDKMVRFMRIDE [W20M] the figure was 2.67; with FSHDGLHVASLADHKMVRFWRIDE [D14H], 2.2. With FSHDGLHVASLADYKMVRFWRIDE [D14Y], the protein stability index stood at 1.52. As to FSHDGLHVASLADNKMVRFWRIDE [D14N], the protein stability index was determined as 2.03. Consider FSHDGLHVASLADRKMVRFWRIDE [D14R], for which the protein stability index is 1.95. The value for FSHDGLHVASLADQKMVRFWRIDE [D14Q] was 1.78; that for FSHDGLHVASLADCKMVRFWRIDE [D14C] was 2.36; that for FSHDGLHVASLADPKMVRFWRIDE [D14P] was 2.05. Regarding FSHDGLHVASLADMKMVRFWRIDE [D14M], the protein stability index was determined as 1.97.
